# Assay results as given in the DeepSol protein solubility set.
# Experiment: soluble on expression in E. coli; label from the status in PepcDB or PDB records
row,Sequence,soluble on expression in E. coli
1,MNIRERKRKHLEACLEGEVAYQKTTTGLEGFRLRYQALAGLALSEVDLTTPFLGKTLKAPFLIGAMTGGEENGERINLALAEAAEALGVGMMLGSGRILLERPEALRSFRVRKVAPKALLIANLGLAQLRRYGRDDLLRLVEMLEADALAFHVNPLQEAVQRGDTDFRGLVERLAELLPLPFPVMVKEVGHGLSREAALALRDLPLAAVDVAGAGGTSWARVEEWVRFGEVRHPELCEIGIPTARAILEVREVLPHLPLVASGGVYTGTDGAKALALGADLLAVARPLLRPALEGAERVAAWIGDYLEELRTALFAIGARNPKEARGRVERV,soluble
2,MNITDLKPTKVWKFFHEITQVPRPSKKEEKILAYLVKFAEDRNLKYRTDEVGNLVIEKPATPGYEHLETVILQSHMDMVCEKNADKVHDFENDPIRTIIDGEWLHADGTTLGADNGIGCAAELAILDSDDIEHGPIECLFTMDEETGMTGAMNLKPGFFNGKILLNLDSEDEGELFIGCAGGMGTMVEFAYEKREATDDYLYFEVKVSGLKGGHSGGEIHIGLGNANKILTRYLYALEHELDWKLCSFQGGNLHNAIPREAHAVIGLKADQKERARVILNELAAAVEDELKRVDPGVKLEMKSVGKPAYRIDCDTKRRLVRALYACPHGVYGMSHDIEGLVETSSNLASVKMKEDDKIYVETSQRSSTSSLISDIANTVASVFELADAKISFRDPYPGWKPNPDSPILKAASESYERIFGRKPAIKAIHAGLECGLFLDKYPYLDMVSFGPTLRDVHSPVEKIEIKTVQLWWDHLVDILKHIPAAK,not soluble
3,MNIVAKPTSFISGAVDGVVDLKNTYTENQHLKERLEELAQLESEVADLKKENKDLKESLDITDSIRDYDPLNASVISRNPTNWNDQVEIDKGSSDGVKPDMAVTTPSGLIGKVTTTGAKSATVELLTSSDVKNRVSAKVQGKENAFGIINGYDSDTKLLELKQLPYDMKFKKGQKVVTSGLGGKFPAGIFIGTIEKVETDKMGLSQTAFIKPGADMYDLNHVTVLKRSAEAGTTDDDTTSSDTTGGQGSHHHHHH,soluble
4,MNKEALVNRLNASAKRQKADIVIKNGKIMDVYNQEWIYEDIAITDGVIVGLGEYEGENIIDAEGQMIVPGFIDGHVHIESSMVTPIEFAKAVLPHGVTTVVTDPHEIANVSGEKGIEFMLEQARHTPLNIHFMLPSSVPAASFERSGAILKAADLKPFYEEEEVLGLAEVMDYVSVQQAEKDMVQKLLDARVAGKRIDGHLAGLSTDLINIYRTAFVLNDHEVTSKEEALDRIRRGMYVMMREGSVAKNTLNVLPAVNEKNRTPVFFCTDDKHVDDLLSEGSVNHQVKMAIQAGLNPFLAYQLGSLNAAECYGLDTKGAIAPGFDADLLFVSDLENVTVTMTMVKGQTVAEDSKAVYQDHASTAAPDQALLDSVKLAAPLNKQDFHMPIDSEQQINVIQIIPNQLETRLVQVPAPVAREFEPDTELDLLKIAVVERHKGLKETGLGVVKGFGFKSGAIATTISHDSHNIIAVGTNDEDIAAAVNKLQEIGGGLTIIKNGEELHSVPLPIAGLLSDQSAEQVNQSLLTLHDKLSLIGFTGGFNPFLTLSFLALPVIPDIKMTTTGLFDVKSFQHISLQ,not soluble
5,MNKFGAEKIFIEKQSGATITHRPIFQEALDFVRAQDIFIVEAIDRLGRNYDEIIDSVNYLKKKNVRLIITSLPIMAEAIGNPLLDKFIKDLIIQILAMIAEQERTESKRRQAQGIKIAKANGVYKGRPKLYSADTKDPQRRLVYKSIVQDLKNGVAISKIAKDYNITRQTIYRIKKEIHELEIN,not soluble
6,MNKKEIQAYQSAFEKFNPFYGVDFPITSVKLCELINKMRNDHNEKVVELRHDHLMNKIREFSEQVNAPNFRVVESSYKDTKGEDRKCYLLGKTECRAIAATESKSVCYMIMVYLDQLEQIFEKAKEAKATEFDRKLSKQGVTWREACRTVGIEHPDLALK,not soluble
7,MNKKELIDILLYDVALEHSAIIQYLYNVFLIGDPEITNEIESIARQEMRHLKWFAQKVVELGGKVTLNRIEEAIKVGQSWEEMLKNDVDAEEEAIKIYSQQLEIVKDDSVKKLLDRVINDEMRHRDEFSEMLEELKNKKIEEAKQEAGIDSEIFNILNKLLQKEYRLILDYLYHFFHSKTWQEKDTSLDIAIESMFHMGELGEKIGELGGYPDLSLPKAKHFKGFTPEEVIEDIKEEETASRMYEENAKKVTREDLVKLFKWFEKQEDYHAQRLKELFRKMNRFTIGGLGEES,not soluble
8,MNKKIGITLGDPAGIGPELILKISKHFKEKFTYVIYGEEKTLLEASKLTGIKLNYKKIEKVEEAKERGVYLIDLNVLKVPVVEPSVSSGKAAVAYLARAVADAIRGNIHGILTMPINKFWAKKAGFQYEGQTEFLAKASGTKDYAMMMYSEKLKVVLLTTHIPLKDVPNYVKKEEILKKVRLIRKEFLEKFKFEPLIKVLGLNPHAGEMGELGREEIEEIIPAVEEAKKEGIKVVGPLVPDVAFINPSEEDVFLCMYHDQGLIPFKMLAFDEGVNFTLGLPFIRTSPDHGTAYDIAWKNKARESSSLHALRLIEDLLDKI,soluble
9,MNKKMIFFDIDGTIVDEKTHVIPEGTIAAIKKARSNGHLVFINTGRTFFNVPDSIRQIGFDGYVCGCGTYIHINGQTLLEKSISHKRCVEIVEKLRECKLDALLEGQKDFFFDQREPVSEKTLELKSKFGKRGYDVSKSWDDSDIVFDKFVIWTRKESNLEAFKSHISNDFDYIDREDEEGEFGEIVLKGYSKATGIKFLQDYFNIPIEDCYALGDSLNDLPMLQYVPNSIAMGNSSKGLFDLVAFVTKDIMEDGIEYALKHYNII,not soluble
10,MNKLKYLQGYPEHILAQVAPMVENGKLAEWVKKKYPTMHDITSEKALFDYTQALKNKYIKKSSPLSKVVYDPKIHVVNNALGLHTFVSRIHGNKLKAKNEIRISSVFRKAPEPLLRMLVVHELAHIKEKEHNKAFYALCCHMEPEYHQLEFDARLYLTYLETLLEHHHHHH,soluble
11,MNKRDYMNTSVQEPPLDYSFRSIHVIQDLVNEEPRTGLRPLKRSKSGKSLTQSLWLNNNVLNDLRDFNQVASQLLEHPENLAWIDLSFNDLTSIDPVLTTFFNLSVLYLHGNSIQRLGEVNKLAVLPRLRSLTLHGNPMEEEKGYRQYVLCTLSRITTFDFSGVTKADRTTAEVWKRMNIKPKKAWTKQNTL,soluble
12,MNLFASEIFVFTPKGEIKTMPQNCTALDFAFSIHTFLGSHCIGAKVNHKLVPLSHKLQSGDQVEILTSKSQHVQPLEHHHHHH,not soluble
13,MNLHEYQAKQLFARYGLPAPVGYACTTPREAEEAASKIGAGPWVVKCQVHAGGRGKAGGVKVVNSKEDIRAFAENWLGKRLVTYQTDANGQPVNQILVEAATDIAKELYLGAVVDRSSRRVVFMASTEGGVEIEKVAEETPHLIHKVALDPLTGPMPYQGRELAFKLGLEGKLVQQFTKIFMGLATIFLERDLALIAINPLVITKQGDLICLDGKLGADGNALFRQPDLREMRDQSQEDPREAQAAQWELNYVALDGNIGCMVNGAGLAMGTMDIVKLHGGEPANFLDVGGGATKERVTEAFKIILSDDKVKAVLVNIFGGIVRCDLIADGIIGAVAEVGVNVPVVVRLEGNNAELGAKKLADSGLNIIAAKGLTDAAQQVVAAVEGK,soluble
14,MNLMLCCTPLQVLIARKIIELHPNEQFFGVMFGGVWDKKRTLYASKLAEVCSDSMNIDTGKDLKGFDFLKLMRQLKNKITHKGFDKVFLANLNSLWLQTYLSHVSFKELYTFDDGSDNIFPHPNLLREPGTFKYKLIKAFIGDKYSVNKLFKKIKKHYTVYPNYKNIVSNIEPISLWDNQIDCEIDGEVSFFIGQPLLNTKEENISLIKKLKDQIPFDYYFPHPAEDYRVDGVNYVESELIFEDYVFKHLSNKKLFIRSSVLLHLIYVILMKSVLLERVFQDGNSVTIHFQTLDRFIRKFLEHHHHHH,not soluble
15,MNLPEVSEKLIEQLNHGSTKAFDKIYHTYYLYLCAIAVYYVHDKRVAGEIVNDVFVSFWQNRHHITYPALPYLRRAIQNASISYLRSSAFNERIMTEQMEEIWAFLENHILSSDNPLQALESSEMNEIILRKVEELPAKCRAVFKASLYEGKSYSEIAEEQNINVATVRVQMKIALTKLRESLGTPYMIAILMFL,not soluble
16,MNLRNGWNIEFQKNIHMYCHRLIATKGDKHYEVPCEDTPAGFVGIWLYGLELDEMTLSDLQAGLVEWAESSGCTYRIYNTRGVYLTNEPHVQADA,not soluble
17,MNLSLHYNLDNRNAMKPHTLVKRSSSQVTDQAVEVIHERIQQGFYPVGSALPSQRELSAELGISRASLREALTRLAALGLLNIMAGKGAYVTAIESQPVEQWNIQFKISLKDFYQLRYILEGFSALLACEYISENDLVQLNTHFEQLESAIQQHNWQEAAENDFAFHRHIIDLSHNQSIIQSLKKQTEWMKQSQILPFVQPNLAYKTIQEHEQILQALIKRDGLMAEKAMRQHIIGAAQRAGVYFSSHS,not soluble
18,MNLVETAQAIKTGKVSLGIELGSTRIKAVLITDDFNTIASGSYVWENQFVDGTWTYALEDVWTGIQQSYTQLAADVRSKYHMSLKHINAIGISAMMHGYLAFDQQAKLLVPFRTWRNNITGQAADELTELFDFNIPQRWSIAHLYQAILNNEAHVKQVDFITTLAGYVTWKLSGEKVLGIGDASGVFPIDETTDTYNQTMLTKFSQLDKVKPYSWDIRHILPRVLPAGAIAGKLTAAGASLLDQSGTLDAGSVIAPPEGDAGTGMVGTNSVRKRTGNISVGTSAFSMNVLDKPLSKVYRDIDIVMTPDGSPVAMVHVNNCSSDINAWATIFHEFAARLGMELKPDRLYETLFLESTRADADAGGLANYSYQSGENITKIQAGRPLFVRTPNSKFSLPNFMLTQLYAAFAPLQLGMDILVNEEHVQTDVMIAQGGLFRTPVIGQQVLANALNIPITVMSTAGEGGPWGMAVLANFACRQTAMNLEDFLDQEVFKEPESMTLSPEPERVAGYREFIQRYQAGLPVEAAAGQAIKYLEHHHHHH,soluble
19,MNMKPESKEAPINIRAKASQRDLIDMAANLVAKSRTDFMLDAACREAQDILLDQRLFILDDEQYDAFLAALDAPITAERQAKINALMNRKSPWE,soluble
20,MNNDVTRILKDARDQGRLTALDYAELIFDNFMELHGDRQFADDKSIIGGLGYLAGRPVTIVGIQKGKNLQDNLDRHFGQPHPEGYRKALRLMKQAEKFGRPVITFINTAGAYPGVGAEERGQGEAIARNLLEMSDLKVPIIAIIIGEGGSGGALALAVADKVWMLEHTVYSILSPEGFASILWKDGTRTTEAAQLMKMTAGELYHMEVVDKVIPEHGYFSSEIVDMIKTSLISELEVLSQLSLEDLLEQRYQRFRKY,not soluble
21,MNNETSGSRDMILKHFDSTQNNQNSVKLEHESSDNNESSGSQNFVFNFLMSQLQNMGPVEIKQEVEAKMLDDIEDEYTDNNYNEGYSKMDTDGDLEWEEEFKKLNKDPSKMDKREQERHRQMAKNREYARKCVQKKKDQRKHAEIRSNQIKKRIQLLKNKTAIKEKNANFAVDLRKMMSEIGVERLKLEYENEKMELNKKFAEMFAQDETVNLNFHRLASAREEFEKAAEDLRLKNGVIGTLGSRKIRAKQQMEWRQHLYQISAHEHEHHRETKLAELADEYVKQTVPKAAPLVTSIPKDMLDQLIKNNKTLDLEELCRFVADNLCLLQNDNDDKESVVK,not soluble
22,MNNGEGEVMDLRDIDLNLLVVFNQLLLDRSVSTAGEKLGLTQPAVSNSLKRLRTALNDDLFLRTSKGMEPTPYALHLAEPVIYALNTLQTALTTRDSFDPFASTRTFNLAMTDIGEMYFMPPLMEALAQRAPHIQISTLRPNAGNLSEDMESGAVDLALGLLPELQTGFFQRRLFRHRYVCMFRKDHPSAKSPMSLKQFSELEHVGVVALNTGHGEVDGLLERAGIKRRMRLVVPHFIAIGPILHSTDLIATVPERFAVRCEVPFGLTTSPHPAKLPDIAINLFWHAKYNRDPGNMWLRQLFVELFSEAHHHHHH,soluble
